# In paper PMC5786281 (Oncogene, 2017):
# B1: EED (endogenous) (natural protein)
# chain: not shown
# Target: EZH2 (endogenous) (human (endogenous in MDA-MB-231, …, UniProt Q15910 1-746))
# Experiment: co-IP
# Sequence of EZH2 (endogenous) (human (Q15910 whole entry): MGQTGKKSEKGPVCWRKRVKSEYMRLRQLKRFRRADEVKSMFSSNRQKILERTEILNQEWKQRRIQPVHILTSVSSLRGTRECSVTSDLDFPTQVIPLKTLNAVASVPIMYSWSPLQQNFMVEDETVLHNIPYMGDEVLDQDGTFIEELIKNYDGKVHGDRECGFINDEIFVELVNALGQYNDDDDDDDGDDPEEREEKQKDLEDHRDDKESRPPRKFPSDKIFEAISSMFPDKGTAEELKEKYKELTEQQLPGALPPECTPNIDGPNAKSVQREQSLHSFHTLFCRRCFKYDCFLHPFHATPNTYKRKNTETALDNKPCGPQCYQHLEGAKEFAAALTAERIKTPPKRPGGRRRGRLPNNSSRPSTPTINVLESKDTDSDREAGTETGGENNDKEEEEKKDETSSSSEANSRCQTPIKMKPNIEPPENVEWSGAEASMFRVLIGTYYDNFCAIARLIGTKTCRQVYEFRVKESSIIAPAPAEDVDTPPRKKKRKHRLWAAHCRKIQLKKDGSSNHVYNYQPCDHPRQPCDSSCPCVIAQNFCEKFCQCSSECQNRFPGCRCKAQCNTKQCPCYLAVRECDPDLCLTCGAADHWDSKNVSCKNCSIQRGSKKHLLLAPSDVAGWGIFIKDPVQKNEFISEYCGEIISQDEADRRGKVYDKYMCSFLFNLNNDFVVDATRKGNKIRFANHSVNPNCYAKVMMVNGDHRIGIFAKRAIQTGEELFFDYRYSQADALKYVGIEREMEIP
binder,measurement,value
B1,fold binding with PARPi against without PARPi,~4.4 times
